Measured values as given in patent publication US10434074B2, “Peptide and small molecule agonists of EPHA and uses thereof” (CASE WESTERN RESERVE UNIVERSITY, priority 2004, dated 2019).

Legend:
EphA2 [1] = molecular target: T1, EphA2 (Rattus norvegicus, UniProt D3ZBN3); assay: EphA2 activation and ERK status in MatLyLu cells; type: cell-based
T1 construct: greatly elevated in MatLu and MatLyLu variants; endogenous in cells; host or cells: MatLyLu (Dunning R-3327 rat prostate cancer subline)
Description: FIGS. 1(A-D) illustrate (A) EphA2 is the primary EphA kinase expressed on human prostate cancer cells. Cell surface proteins were labeled with membrane impermeable biotin (Method). Top panel: Saturating amount of ephrin-A1-Fc (EA1-Fc) was used to precipitate most EphA kinases. Lower panel: EphA2 was first immunodepleted from cell lysates with an EphA2-specific antibody. Saturating amount of ephrin-A1-Fc was then added to the EphA2-depleted cell lysates to precipitate other members of EphA kinases. The precipitates were subject immunoblot with HRP-labeled avidin. (B) Expression of EphA2, but not other EphA kinases and ephrin-As, is elevated in cell lines derived from more malignant prostate cancer. Total cellular proteins were immunoblotted with the indicated antibodies. (C) Immunofluorescence staining of EphA2. Human prostate cancer cells grown on cover slip were stained with anti-EphA2 antibody. Texas-Red labeled secondary was used to visualize the bound primary antibody. […] To determine the ERK activation status, total cell lysates were analyzed by immunoblot using anti-phospho ERK (p-ERK) antibody. […]
Cells cultured in 6 well plates at 70-80% confluence were stimulated with 0.5 μg/ml Fc, 1 μg/ml epnrinA1-Fc or 20 ng/ml HGF/SF or their combinations as indicated. […] For quantitative analysis, band densities were measured using KODAK 1D imagine analysis software (Eastman Kodak Company).

EphA2 [2] = assay: EphA activation and ERK1/2 in primary keratinocytes; type: cell-based, mouse
Description: (§1) FIGS. 43(A-C) illustrate EphA2 kinase is required for ephrin-A1-induced inhibition of ERK1/2 MAP kinase and growth suppression in primary keratinocytes. A) EphA kinase activation by ephrin-A1 in EphA2^+/+ and EphA2^+/− but not EphA2^−/− keratinocytes. Keratinocytes were isolated from newborn (P1) mice and cultured on matrigel-coated culture plates. They were stimulated with 1.0 μg/ml of ephrin-A1-Fc for 10 min. The unstimulated cells were used as control. EphA receptors including EphA2 were precipitated from the cell lysates using ephrin-A1-Fc, and were subjected to immunoblot analysis with rabbit polyclonal anti-phospho-EphA/B antibody. Membrane was stripped and blotted again for total EphA2. B) Ephrin-A1 stimulation leads to inactivation of ERK1/2 MAPK in EphA2^+/+ and EphA2^+/− but not EphA2^−/− keratinocytes. Total cell lysates were analyzed by immunoblot with the indicated antibodies. The band densities from p-ERK blot were normalized to the corresponding total ERK1 blot. The ratios of p-ERK between ephrin-A1-treated and untreated were shown in the lower panel. C). Ephrin-A1 stimulation inhibits clonal growth of EphA2^+/+ and EphA2^+/− but not EphA2^−/− keratinocytes. Primary keratinocytes were plated on 6-well plates coated with matrigel at 5,000 cells/well, and allowed to grow for 12 days in the presence of Fc (0.5 μg/ml) or ephrin-A1-Fc (1.0 μg/ml).
(§2) To determine cellular mechanisms underlying the increased susceptibility to skin tumorigenesis, primary keratinocytes were isolated and cultured from epidermis of neonatal (P1) mice. They were stimulated with ephrin-A1 fused to the heavy chain of human IgG1 (ephrin-A1-Fc). EphA kinases including EphA2 were precipitated with excess ephrin-A1-Fc, and blotted with antibody raised against phosphorylated dityrosine peptide that is highly conserved in the juxtamembrane region of all Eph kinases. Phosphorylation of this region has been correlated with Eph receptor activation.
(§3) Primary keratinocytes were isolated from neonatal mouse skin as described previously (Caldelari et al., 2000). Briefly, the entire P1 mouse skin was dissected and incubated with 5 U/ml dispase II (Boehringer Mannheim) overnight at 4° C. Epidermal layer was separated from dermal layer using forceps, minced and digested with 0.25% trypsin/0.05 mMEDTA. After neutralizing trypsin by washing with serum-containing medium, cells were filtered through sterile gauze pads, spun down and resuspended in serum-free keratinocytes culture medium (Gibco) containing pituitary extract, 5 ng/ml EGF, 100 U/ml penicillin, 0.1 mg/ml streptomycin, and 0.25 μg/ml amphotericin, and plated on 6-well plates precoated with 50 μg/ml matrigel. Cell stimulation with ephrin-A1-Fc, immunoprecipitation, and immunoblot were carried as described preciously (Miao et al., 2003; Miao et al., 2005).

EphA2 [3] = molecular target: T2, EphA2 (Mus musculus, UniProt Q03145); assay: as above; type: cell-based
T2 construct: endogenous in cells; host or cells: primary keratinocytes from newborn (P1) mouse epidermis
T2 sequence (Q03145 26-977): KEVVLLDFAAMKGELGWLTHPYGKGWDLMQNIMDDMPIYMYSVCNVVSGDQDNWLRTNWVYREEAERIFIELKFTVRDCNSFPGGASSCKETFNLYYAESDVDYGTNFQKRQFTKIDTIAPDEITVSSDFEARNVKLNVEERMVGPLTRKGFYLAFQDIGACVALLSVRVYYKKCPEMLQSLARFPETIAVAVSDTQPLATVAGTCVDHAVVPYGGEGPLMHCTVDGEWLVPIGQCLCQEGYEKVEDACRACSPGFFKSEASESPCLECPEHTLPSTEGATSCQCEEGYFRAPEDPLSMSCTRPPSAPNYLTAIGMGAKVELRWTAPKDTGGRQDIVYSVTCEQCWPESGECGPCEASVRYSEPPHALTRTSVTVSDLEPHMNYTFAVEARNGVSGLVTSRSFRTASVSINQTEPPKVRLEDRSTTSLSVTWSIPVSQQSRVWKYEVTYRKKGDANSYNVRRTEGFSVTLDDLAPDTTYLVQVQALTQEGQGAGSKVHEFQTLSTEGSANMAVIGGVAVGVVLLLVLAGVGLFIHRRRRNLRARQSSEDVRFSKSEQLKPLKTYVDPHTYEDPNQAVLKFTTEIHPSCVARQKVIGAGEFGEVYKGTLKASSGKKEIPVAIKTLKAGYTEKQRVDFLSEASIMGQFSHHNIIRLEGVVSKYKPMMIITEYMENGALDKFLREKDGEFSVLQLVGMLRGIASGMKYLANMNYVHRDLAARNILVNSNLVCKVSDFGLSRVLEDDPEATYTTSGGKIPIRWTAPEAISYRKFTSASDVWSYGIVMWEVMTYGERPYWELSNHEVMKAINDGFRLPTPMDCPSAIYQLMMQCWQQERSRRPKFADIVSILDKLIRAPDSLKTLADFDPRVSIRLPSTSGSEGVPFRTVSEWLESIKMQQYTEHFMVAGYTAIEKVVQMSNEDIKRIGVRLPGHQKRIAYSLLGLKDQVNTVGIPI
Description: as §1, §2, §3

T1 sequence (D3ZBN3 1-977): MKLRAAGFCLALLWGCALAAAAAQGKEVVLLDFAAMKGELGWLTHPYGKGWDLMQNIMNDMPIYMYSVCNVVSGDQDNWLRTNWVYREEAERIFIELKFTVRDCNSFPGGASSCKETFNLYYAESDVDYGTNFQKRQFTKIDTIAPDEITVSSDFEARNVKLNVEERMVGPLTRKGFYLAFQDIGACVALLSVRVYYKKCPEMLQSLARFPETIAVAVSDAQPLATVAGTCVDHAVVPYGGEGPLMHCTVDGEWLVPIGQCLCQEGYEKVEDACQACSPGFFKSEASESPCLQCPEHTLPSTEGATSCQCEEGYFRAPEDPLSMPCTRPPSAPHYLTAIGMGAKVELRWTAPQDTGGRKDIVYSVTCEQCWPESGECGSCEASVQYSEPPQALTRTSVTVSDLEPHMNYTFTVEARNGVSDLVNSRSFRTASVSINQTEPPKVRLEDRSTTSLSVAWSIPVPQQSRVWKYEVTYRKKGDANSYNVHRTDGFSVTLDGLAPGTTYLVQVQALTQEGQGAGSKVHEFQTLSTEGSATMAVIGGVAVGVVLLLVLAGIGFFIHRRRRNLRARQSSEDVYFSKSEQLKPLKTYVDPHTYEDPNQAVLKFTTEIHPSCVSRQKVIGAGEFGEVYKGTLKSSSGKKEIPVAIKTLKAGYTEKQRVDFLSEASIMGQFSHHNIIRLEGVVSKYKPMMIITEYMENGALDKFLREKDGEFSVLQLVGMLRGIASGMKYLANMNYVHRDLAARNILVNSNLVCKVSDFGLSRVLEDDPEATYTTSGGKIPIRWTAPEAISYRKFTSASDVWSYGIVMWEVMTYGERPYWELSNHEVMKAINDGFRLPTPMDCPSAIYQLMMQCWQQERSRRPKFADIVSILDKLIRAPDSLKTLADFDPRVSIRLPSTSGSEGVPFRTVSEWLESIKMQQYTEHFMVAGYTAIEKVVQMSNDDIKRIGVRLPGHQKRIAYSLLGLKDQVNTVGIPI

B1: ephrin-A1-Fc: ephrin-A1 dimerized by fusion to the heavy chain of human IgG1 (protein)
chain: DRHTVFWNSSNPKFRNEDYTIHVQLNDYVDIICPHYEDHSVADAAMEQYILYLVEHEEYQLCQPQSKDQVRWQCNRPSAKHGPEKLSEKFQRFTPFTLGKEFKEGHSYYYISKPIHQHEDRCLRLKVTVSGKITHSPQAHDNPQEKRLAADDPEVRVLHSIGHS
modifications: left off: a dimerising Fc or GST
notes: ephrin-A1 dimerized by fusion to the heavy chain of human IgG1
In the case of B1, the ERK1/2 activity (EphA2 [1]) is reported as “reduced”, the “EphA2 activation, time course” value (EphA2 [1]) is reported as “readily occurred in two minutes” and the p-EphA/B signal (EphA2 [2]; EphA2-null keratinocytes) is reported as “undetectable”. For the same molecule, the ERK1/2 activities (EphA2 [2]; EphA2 homozygous deletion) was “completely abolished the inhibitory effects”, the ERK1/2 activities (EphA2 [3]; heterozygous keratinocytes) was “intermediate response” and the EphA2 activation (EphA2 [3]; wild type and heterozygous keratinocytes) was “readily activated”. For the same molecule, the ERK1/2 activities (EphA2 [3]; wild type keratinocytes) was “significantly attenuated”.
